According to publication PMC2807882:

T1: Mmp53 (mouse p53) with C-terminal FlAsH tag, labelled with FlAsH (mouse (Mus musculus)), P02340
T1 chain: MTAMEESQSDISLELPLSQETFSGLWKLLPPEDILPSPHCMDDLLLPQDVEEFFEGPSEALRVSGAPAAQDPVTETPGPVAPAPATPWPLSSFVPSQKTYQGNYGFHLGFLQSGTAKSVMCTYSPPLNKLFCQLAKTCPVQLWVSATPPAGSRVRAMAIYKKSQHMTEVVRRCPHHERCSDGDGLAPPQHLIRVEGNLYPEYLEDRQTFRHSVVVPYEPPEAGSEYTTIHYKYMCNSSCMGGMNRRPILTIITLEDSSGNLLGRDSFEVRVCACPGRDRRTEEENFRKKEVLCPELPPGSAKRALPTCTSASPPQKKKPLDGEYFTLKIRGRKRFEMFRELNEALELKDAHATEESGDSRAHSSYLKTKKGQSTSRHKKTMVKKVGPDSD

T2: Mus musculus p53, full length, with C-terminal FlAsH tag, FlAsH-labelled (Mus musculus), P02340
T2 chain: T1 chain

B1: Mmp53 (mouse p53) with C-terminal FlAsH tag, labelled with FlAsH, P02340 1-390 (natural protein)
chain: T1 chain
modifications: here or on the partner: FlAsH (from FlAsH-EDT2, Lumio Green) on the C-terminal CCPGCC tetra-cysteine tag; FlAsH (from FlAsH-EDT2, Lumio Green) on the C-terminal CCPGCC tetra-cysteine tag
B2: Mus musculus p53, full length, with C-terminal FlAsH tag, FlAsH-labelled, P02340 1-390 (natural protein)
chain: T1 chain
modifications: here or on the partner: FlAsH (from FlAsH-EDT2, an arsenic derivative of fluorescein) on the C-terminal CCPGCC tetra-cysteine tag; FlAsH (from FlAsH-EDT2, an arsenic derivative of fluorescein) on the C-terminal CCPGCC tetra-cysteine tag

What was measured:
[1] = biological target: T1, Mmp53 (mouse p53) with C-terminal FlAsH …; assay: AUC; sedimentation velocity with fluorescence detection, FlAsH-labelled protein at 5-500 nM; 150 mM NaCl, 25 mM phosphate pH 7.2, 10% glycerol, BSA 0.2 mg/mL, 1 mM beta-mercaptoethanol, 10°C; tetramer to dimers; Kd expressed in concentration of monomer; conditions: remark: other sources report otherwise
[2] = biological target: T1, Mmp53 (mouse p53) with C-terminal FlAsH …; assay: dimer-tetramer equilibrium; conditions: natural protein, chains chain, FlAsH (from FlAsH-EDT2, Lumio Green) on the C-terminal CCPGCC tetra-cysteine tag, remark: other sources report otherwise
[3] = biological target: T2, Mus musculus p53, full length, with …; assay: AUC; sedimentation velocity with fluorescence detection, FlAsH-labelled protein at 5-500 nM (monomer); 150 mM NaCl, 25 mM phosphate pH 7.2, 10% glycerol, BSA 0.2 mg/mL, 1 mM β-mercaptoethanol, 10°C; tetramer to dimers; Kd expressed in concentration of monomer; conditions: remark: other sources report otherwise

Row | Binder | fold weaker self-association (dimer-tetramer equilibrium) than Dmp53, Drp53 and ΔNp73β [1] [fold] | stoichiometry N [1] | Kd [2] [nM] | Kd [3] [nM]
1 | B1 | 10 | 4 | 17.2 | 
2 | B2 |  |  |  | 17.2
